Assay: soluble fraction after stress (log2 fold change); higher = more stays soluble; pooled small domains, quantitative proteomics
Conditions: stress: 50 degC
Procedure, shortened: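 Pooled custom libraries of small protein domains were each held under stress at 50°C. The read-out, high-throughput quantitative proteomics, tracked how much of each protein stayed soluble. This is reported as a base-two log fold change used to indicate aggregation propensity. Higher values mean more protein remains in solution.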

HMKDLDSLSQEAKSVYAVFSDKPIHIDDIKRKTGLDFSKLFKAVTELELAELISSGEGKMYSL
soluble fraction (log2): -0.0108

HMGAGEQMLPKVMFAEGDRVVHKVFGEGTVVTVDRPAQTYDIQFDKLRGTRRIMFRAELEGI
soluble fraction (log2): -0.554

HMLENSLDHIEGIGPKTKDTLLTYFKSVSKIKSANPSILAELIGAAKTKILLAAFEKEKTTS
soluble fraction (log2): -0.017

HMPKRYAGPDIIAIYGSDVFFRVGSGDGLMVIPVGRSMDNIEVVSVDAPRSVELMWKDGGPFTVPV
soluble fraction (log2): -0.165

HMSWEDSLLKQAREIIDMYPQKRSAVGPLLHLAQSKDGYISDDSISVISKLVGITEVQLKSVSTFYSMYK
soluble fraction (log2): -1.59

HMGDRRSVFEQSVLDAIKSLVKQGELATTKAISDHIGTNYQGNVSRAITALLADNKIKKLPKEGVLQPYEA
soluble fraction (log2): 0.0535

HMGRLEVDLVVPYDKYEAMNVIRAEGRILKEDHQGDGAHLKIQINETALWKLKRMLGEGYGQ
soluble fraction (log2): -0.157

HMKVQEVDYGTFLTMVDEGKVNQVDIENSKQITFNTKGDKNKVYITGQVNDPELVNRLYKAGVEFSQEIP
soluble fraction (log2): 0.0729

HMGSQQIEEGMRRLVASGALRPGASVPSVRDLARDLQVNPATVVRAYQRLVDAGLLVVRRGEGTFVAE
soluble fraction (log2): -0.588

HMSLLTPLEEARIVIEELIIPQKLTLDLLPQNSQIRKLQHEIINHYRLKGISIGDGKNRRVRIYS
soluble fraction (log2): -0.133

HMGQLSDREALTVLAREALVELPRAAGDYRNGRTAALQSLVGRVMRKTAGRGNPALLQEIFRSLL
soluble fraction (log2): -0.436

HMRKIEDVLRLHAQGMSTRRIALATGVGKTTVIEYLRRAAVAGLSWPLPEGLDEEALERRVFPPPP
soluble fraction (log2): -1.45

HMTAIWKTITATLTHDIATGKYAPGDRLPTEAQLAARFGVNRHTVRRAISDMNESGLTYSRRGAGVFVAQ
soluble fraction (log2): -2.59

HMSAQPMEYSRFYSDVTQGRVAEVEIEGREINGRLSTGERFKTFSPETDNKALIGHLLDNGVVIEGKPP
soluble fraction (log2): 0.234

HMSSGTAYATDAVNVRSGPGTSYTVLGYLSRGEKVTITGTVSNGWTQIQLPGNRLGYVSSAYLSASYPS
soluble fraction (log2): -0.259

HMGNSRNDQDLQTQIIKILAEGPASSRTLIETLTIEDEAALLKTLKRLLMNKKISLTPSNLYKL
soluble fraction (log2): -0.487

HMSTIKEKIIQYLDFKGISKYDFYQKTGVSNGVLSQKSGMSEDNIMRFLSYYDDINTDWLFYGKGEMIKT
soluble fraction (log2): -1.13

HMEELELTIDGEMVGRIDKQLGHHFDQFSRSQIQHWIEDGHVLVNGKQVKPKYKLLVGDHVQIIPEEPQK
soluble fraction (log2): 0.25

HMRTLSAGVAGRLRADILNGLLEPGRRLGMAELTERYGAGMSPVREALSRLVGEGLVQSEGQRGFRVA
soluble fraction (log2): -0.0944

HMFDTVKIGKRIAELRKKRDMTQFELADRLGISYQAVSNWERGNSMPDIAKLPELAEIFGVTVDEILG
soluble fraction (log2): 0.161

HMIERLVEFVHTLRHSGVRVSMAEAMDAAEALRHTPITERQIFKTALQSVLVKEHQDIPAFDAAFERFFL
soluble fraction (log2): -1.54

HMRAPEIEAARSDLDVGQTVQIVRHLHGNQYEVFYRGAQWQAEAVGSSGANDAQTAVITGKNGNILLIQI
soluble fraction (log2): -0.0658

HMLERPLFTPEQYGRFRGKEARIRLSNPVEGRKTLTGSIVEATEERIVVFVEEEEREVTVPFQWIKSGNL
soluble fraction (log2): -0.435

HMFFAGLSPEAARTLDSLPLHSWSSVEQIARQAGLNIETVRKELGLLELSGIALSRQGRFRRA
soluble fraction (log2): -0.549

HMDHSSLIKKLRLERGLSQKKLAQGISQRSTLASFENNATKISYNILIQYLDRMNVTLEEYQFMLDGNNL
soluble fraction (log2): -2.06

HMGKLYRDRYAPLEPDGARAGDRVFIISLEKEGTLERIDLPRKTATVLLGSSIRSTFPLDDLYQPRG
soluble fraction (log2): 0.0151

HMGPLSDRSVADWLLRLGLADTANNRLLLQVMHAAGLPLERTAVRAMRETAAGRPEGTDAREWLQAAAAAQ
soluble fraction (log2): -0.208

HMSIEIIEITSNSSPKNLSEIIDIDATQIVADLMGLGIMKAIDTPLENSEIEQLLEKYNLIAEFVE
soluble fraction (log2): -1.47

HMDNEIIEEEKITTLMITHNMRDAIKYGNRLIMLNEGRVIFDISGEEKKNLTVQELLEKFEK
soluble fraction (log2): -0.118

HMDQHPYGEDSFRGDNPPAGFDIKGNEDSMKFHEPSSPWYGRTIAEVWFRSAAAAEAAGFVNAV
soluble fraction (log2): -0.113

HMKITLAESVYERIRRDIITNQLKPGEKINIRELSTRYEASETPIRLALNRLASENIIEHFPRQGMRVK
soluble fraction (log2): -0.371

HMRLPNHYGSVVKLSGKRRRPFMVRGGVYGYDDRGYPQYVIVGYTETREQGLTMLAEYNRNP
soluble fraction (log2): -3.22

HMFPELNAEETQVVQLLQKQTEGMQVNSLVVESNIPITRMSGILFELELKGIIRNYAGGVYKL
soluble fraction (log2): -2.16

HMAMTRTEYLNQLKHYLKRLPHTDYEEAMDYFKEYFEEAGPENEAQVIQDLGNPKEAAYEILSQLL
soluble fraction (log2): -0.253

HMSQLVTGVLRNLNDISEKIAAGKAVPEMLGRLENMQQMIANLKGNEGLIKSISILTRSAQDALR
soluble fraction (log2): 0.00825

HMENQGEDMRQQVKALVNADKTNITKLATATGYSRSTISMYLAGNYKGDVEAVERRLEEYMKTQG
soluble fraction (log2): -0.0136

HMSEQGVITAKFASIVGNQNIQLVMFPDSVYLKGQVSSEEEKKRAETVASSLIQDRKIVNLIEFE
soluble fraction (log2): -0.0169

HMIAIGDDARLDDAARFFRIAEDSYAAGDYRKSKENYIEARKLYAELGDHEKVNLINSKISAIDSIT
soluble fraction (log2): 0.0633

HMKMHKIIKERRLALNFTQEQVAKYLGVTTPAVNKWEKGISYPDISLLPALARLLDTDLNTLLSF
soluble fraction (log2): -2.1

HMTGESVPAPLSGTIFKILVAPGEQVEEGQTVIILEAMKMETEISAPRSGVVGAINIKEGDSVQVGQSLFT
soluble fraction (log2): 0.0706

HMISAVDLMAARRKIEAGITNLQPGQAFTLPNKVGWVKRMTGGSYFIQGNGGYTASVRTISEAIQAAAMLL
soluble fraction (log2): -0.394

HMVIREVNDNPVSAEELRLGDRVKVLSLGQNGEIVTLPDEKGELTVQVGILKAKVNLDDIMLI
soluble fraction (log2): 0.0226

HMSQDVLLKRSGDQIEVKITEVGEDYLKYKKKGFENGPDFKINTSDVFMVTFANGEKMMFEES
soluble fraction (log2): 0.0105

HMTGQLTEEELKQRQERAMSNPEIQGILSDPVMRQVLQDMSTDPKAAAEHQRNPTIMAKIQKLINAGIVQV
soluble fraction (log2): 0.11

HMGLVLIDSYNDIGSAKLITNKIRNLGLIFEENENKINVFAGPFEKNDINLKIDFLIRNGYTNAQLY
soluble fraction (log2): -2.48

HMLSDADLAAFREVFDLVDKDKSGAIEMEEVEELTKLLGLDLTRDEVELLVREIDKDGNGEVDFEEFLLVM
soluble fraction (log2): 0.0193

HMTVLIDEQSSDGLLKITVTANTAVKSITIADELLEDKEQLEDYLILVLNKAIARANQVNQTELDAVAK
soluble fraction (log2): 0.317

HMTVTMADISQAYNEKRYLTTISLSNTYLTFAKPTTELLSIRYRTYFIIGKYAESLTEIAKL
soluble fraction (log2): -0.173

HMAGTRVWSENGQLYVTAAVSGRANVYNVLGKLNRSLTFSAGETKSVSVPAGIYVVSLNNGKAYKVAV
soluble fraction (log2): -1.67

HMAEKNALWEEDAVYAADSSALARDGYDAIVRTDKGGKKGYLVVGTGGRERFMPLQTLVMLGYLKK
soluble fraction (log2): -0.065

HMGEPLSPDARALTNVLRHYRGWAEPGELARKSGLGSRERVLTAAQSLVNAGLADIERGMVRPTAALMEVQ
soluble fraction (log2): 0.0805

HMQGQADFTQGIANFTQYPVGSRITVFTLEGRRVAVVEIGKDGTAQLDMRNKPAGVYIVNTGKQSFKWLK
soluble fraction (log2): -1.26

HMEAIYKKNKNLIHTVIRDNFPFLIDTADYEDAFQEGSIGLIRAIDRFDDGLEYKFSSYAYTAIRNQIA
soluble fraction (log2): -0.409

HMSLTGFYNLTFKQADRLSVIDEAGEEVYKQAIAMGSTTKTIDLSALNAGVYFIRIYNGEVIAQEKIVLN
soluble fraction (log2): -1.25

HMSFNNHYEILQVQPSADREVIEAAAKALLKKHHPDLGGRNTITSHIVQAKKVLTDTSQRADFDARLRERL
soluble fraction (log2): -0.0959

HMSRYLLPYAFARTQQVLLEEKSGELTLWMHSGSNLGGISEVTRKYAVQHVTHEPMDALLNRISSAYAN
soluble fraction (log2): -3.41

HMRRSKVMLESILDEIPQMGQARRAALLEQFGSVAALRKASLAEIAMTPGIGEKIAVIIFEYLQKSSH
soluble fraction (log2): -1.17

HMQISMQNIASVKIDDLSDEQIQEFSTKYTAAGYSFPDVENVAKQKGMPSSEIEKLRQRVLTAQNTQEK
soluble fraction (log2): -0.163

HMGIQYVASGHYARMETDAQGVSRLFPPESGAPDESDRLAALSPEVLTRLILPLGDFAPEDVEEMAVD
soluble fraction (log2): 0.102

HMQNVFARKNLTSVSVDKLGEEEILLFKQSFESKNLTSSEALRDLSKKGMSEAELRKLKVRLTQL
soluble fraction (log2): -0.074

HMETADREILLREIREIINERVDYNKDITDDEMKELVMNTVFERSRQQYMSIQDKQEIIQAIFNSMR
soluble fraction (log2): 0.126

HMLDFGQEDSEAVSEIILVLGRYWMDFSHKKYPEAEGSALRHKGISHIFTVLKPYLTSATAQLIEQRLQQ
soluble fraction (log2): 0.00235

HMTFDWAAYEISEKEIRVMSLVAEGFSNKEIAQELFLSEGTVRNYISNILEKLGLRDRTQLAVHYLKAV
soluble fraction (log2): -1.28

HMNKELVVPDLTDMRVKDAEFEAHQVGMRTEIVDSVYVRRLKRGYVYKQNPVPGSKVKKGRRIALTINAV
soluble fraction (log2): 0.202

HMITNSTEIEAMIDSLIKENPEQAEQYRNGNTKVVGWFVGQMMKASKGKANPQVVGDLLAQKLVG
soluble fraction (log2): 0.0323

HMVSKTEAMAVFIADKLQEGMVPANEILELYKGMQLSDRTIRNAKKQLGIVSIRKDGQWYWSL
soluble fraction (log2): -1.19

HMAAGELSGEALIALIERHPMALSALATTFGHSESDLRAFVEPLARQGRLRLFESQGTLFVGGIG
soluble fraction (log2): -0.022

HMEIEEIDYGTFLQMVEDGVVEKIELTDTQIFLTSTVDNDDKVYTTGVMPDQDLTNRLIEAGVVNFGKVV
soluble fraction (log2): -0.21

HMVTTADIILEFYSRNPNATLTQAAQHVARATGTTYSRQAISAQLKRLEVAGLVERNGHVTV
soluble fraction (log2): -0.393

HMDEFTIILEDAGSQKIAVIKEVRVLNSSLGLKEAKDLVDATPATIMEKADKATADKAKAAFEAAGAKVTI
soluble fraction (log2): -0.22

HMSSPRAIYSAIQKAVGEDMILYREDVQIILDKLDADLLVDDILEKMELDGTLVRQRDGTWLLL
soluble fraction (log2): -0.658

HMNREYELTAEESGQRLDKYLAGEMTDLSRSRIKELVQAGEILVNGKKSKVSYKVQKDDLIQVIVLPLE
soluble fraction (log2): -0.285

HMALENTDLYAHLRLSHTASVPEIQAALSARVKHMPLQTWLLARKWLLHPRLRERYDGMWSVRFGA
soluble fraction (log2): -2.62

HMYVTGETIRHLRTQRRMTQEQLAETLGVTGKAVSKWETGRGFPDMSLLEPLARALRISVPELLSGE
soluble fraction (log2): -0.614

HMKEEVSVPDIKGMTYEEAEAKLAKYDLEIEKGETVKASEQYEEGQISSQEPEAGSKVKEGSTIVVDVVE
soluble fraction (log2): 0.316

HMGDVPESLVEKAGHSINAKIISAWGMTETGASTMTRPQDDPERAIYSDGVVLPLMDVRVVNDAGLA
soluble fraction (log2): 0.0119
